Experimental data taken from patent US20160222124A1 (published 2016).
Where a chain is given by its changes, count along the chain named.

Tests used:
human CD40 (cellular) = human CD40 (cellular) (human, UniProt P25942 21-277); assay: cell-based or functional assay
cynomolgus monkey CD40 = molecular target: T1, cynomolgus monkey CD40 (cynomolgus monkey, UniProt G7PG38 21-278); assay: ratio of binding EC50 human/cyno; ratio > 1 means increased binding to Cyno compared to Human
T1 construct: whole, on cells; also called Cyno CD40; CD40 on cynomolgus B cells and platelets

Chain of human CD40 (cellular) (P25942 21-277): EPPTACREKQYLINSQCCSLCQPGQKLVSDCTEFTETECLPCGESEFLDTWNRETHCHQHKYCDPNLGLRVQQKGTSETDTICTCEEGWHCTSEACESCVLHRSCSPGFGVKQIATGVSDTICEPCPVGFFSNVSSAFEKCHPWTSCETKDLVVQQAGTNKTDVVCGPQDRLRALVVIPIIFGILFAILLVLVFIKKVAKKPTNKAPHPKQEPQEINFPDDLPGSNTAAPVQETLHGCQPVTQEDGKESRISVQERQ

B1: Antibody C (antibody, V domains shown)
VH: QVQLVQSGAEVKKPGASVKVSCTASGFNIKDYYVHWVKQAPGQGLEWMGRIDPEDGDSKYAPKFQGKATMTADTSTSTVYMELSSLRSEDTAVYYCTTSYYVGTYGYWGQGTLVTVSS
VL: DIQMTQSPSSLSASVGDRVTITCSASSSVSYMLWFQQKPGKAPKLLIYSTSNLASGVPSRFSGSGSGTDFTLTISSLQPEDFATYYCQQRTFYPYTFGGGTKVEIKR
notes: also called 2H11-159-94
- B cell proliferation: Agonism (SI*) (human CD40 (cellular)): < 2 SI
- Species cross-react.: Hu/Cyno Binding (EC50 ratios) (cynomolgus monkey CD40): 1

B2: Antibody A (antibody, human IgG1, kappa, L234A L235A, V domains shown)
VH: EVQLVESGGGLVKPGGSLRLSCAASGFTFSDYGMHWVRQAPGKGLEWVAYISSGNRIIYYADTVKGRFTISRDNAKNSLYLQMNSLRAEDTALYYCARQDGYRYAMDYWAQGTLVTVSS
VL: DIVMTQSPDSLAVSLGERATMSCKSSQSLLNSGNQKNYLTWHQQKPGQPPKLLIYWTSTRESGVPDRFSGSGSGTDFTLTISSLQAEDVAVYYCQNDYTYPLTFGGGTKVEIKR
notes: also called 20E2-12
- B cell proliferation: Agonism (SI*) (human CD40 (cellular)): < 2 SI
- Species cross-react.: Hu/Cyno Binding (EC50 ratios) (cynomolgus monkey CD40): 3

B3: Antibody B (antibody, V domains shown)
VH: B2 VH with L93V, A110G
VL: B2 VL with R18K, A19V, M21I, S22N
notes: also called 10E2-1
- B cell proliferation: Agonism (SI*) (human CD40 (cellular)): < 2 SI
- Species cross-react.: Hu/Cyno Binding (EC50 ratios) (cynomolgus monkey CD40): 2

B4: 4D11 (Kirin/Astellas) anti-CD40 antibody (antibody, V domains shown)
VH: QLQLQESGPGLLKPSETLSLTCTVSGGSISSPGYYGGWIRQPPGKGLEWIGSIYKSGSTYHNPSLKSRVTISVDTSKNQFSLKLSSVTAADTAVYYCTRPVVRYFGWFDPWGQGTLVTVSS
VL: AIQLTQSPSSLSASVGDRVTITCRASQGISSALAWYQQKPGKAPKLLIYDASNLESGVPSRFSGSGSGTDFTLTISSLQPEDFATYYCQQFNSYPTFGQGTKVEIK
- B cell proliferation: Agonism (SI*) (human CD40 (cellular)): < 2 SI
